In patent publication US8017326B2, “Methods of modulating cell death based on the Bit-1/AES regulatory pathway” (Sanford-Burnham Medical Research Institute, priority 2002, dated 2011):
Entries after “also recorded” stand apart in the source; their conditions may differ.

Key:
Bcl-2 promoter [1] = test: Bcl-2-promoter-luciferase reporter assay in HEK 293 cells; format: cell-based, human; details: luciferase after 24 hours
Protocol: Bit1 activity was analyzed in the human embryonic kidney cell line, HEK 293. […] Furthermore, HEK 293 cells were transfected with a Bcl-2-promoter-luciferase reporter construct together with increasing amounts of Bit1 expression construct; Bcl-2 transcription was measured by quantifying luciferase […] after 24 hours in culture. In agreement with the CHO cell results, transcription from the Bcl-2 promoter was suppressed in the Bit1-transfected HEK 293 cells (see FIG. 1B). […] In particular, the percentages of annexin V-positive cells (lower right quadrants) are about 1.4% in the control and about 4.7% in the Bit1-transfected cells.

Bcl-2 promoter [2] = test: Bcl-2 promoter reporter assay in CHO cells; format: cell-based, Chinese hamster
From the text: The entire CGI-147 open reading frame encodes a 27-kDa protein with no sequence similarity to other proteins. […] To denote this inhibitory transcriptional activity, the Clone-3 gene was denoted Bit1 for Bcl-2 inhibitor of transcription.

19,000 human cDNAs = test: cDNA microarray analysis of ecdysone-induced Bit1 or AES cell lines; format: cell-based
Protocol: To determine whether the Bit1/AES pathway can regulate the transcription of genes other than Bcl-2, two stable cell lines were established expressing either-Bit1 or AES under control of an ecdysone-inducible promoter. To detect genes regulated by Bit1 or AES, probes were prepared from the ecdysone-induced cell lines and used to screen microarrays representing 19,000 human cDNAs. […] Down-regulation of HSP-70 and thymosin 4 in cells induced to express Bit1 or AES was confirmed by Northern blot analysis (see FIG. 7).
cDNA microarray analysis was performed as follows. Total RNA was purified 48 hours after treatment with 10 μM ponasterone A (Invitrogen; San Diego, Calif.) from the ecdysone inducible cell line ECR-293-Bit1 or ECR-293-AES according to the manufacturer's instructions (Qiagen; Valencia, Calif.). cDNA probes were generated and hybridized with a microarray containing 19,000 human cDNAs from Microarray Centre at University Health Network, Ontario Cancer institute. cDNAs were labeled with fluorescent dyes (Cy3 or Cy5) using reverse transcription. Arrays were processed and hybridized essentially as described in Iyer et al., Science 283:83-87 (1999). After hybridization, arrays were scanned to measure fluorescence using a ScanArray 4000 scanner (Perkin Elmer; Meriden, Conn.). Raw data files generated by scanner software were imported into ImaGene and Gene Spring for analysis. Experiments were performed in duplicate using color reversals.

B1: Bit1: human Bit1 polypeptide of 179 residues (SEQ ID NO:2), pro-apoptotic, expressed in cells by transfection (protein, listed as Homo sapiens)
chain: MPSKSLVMEYLAHPSTLGLAVGVACGMCLGWSLRVCFGMLPKSKTSKTHTDTESEASILGDSGEYKMILVVRNDLKMGKGKVAAQCSHAAVSAYKQIQRRNPEMLKQWEYCGQPKVVVKAPDEETLIALLAHAKMLGLTVSLIQDAGRTQIAPGSQTVLGIGPGPADLIDKVTGHLKLY
In the case of B1, the “transcription from the Bcl-2 promoter” value (Bcl-2 promoter [1]) is reported as “suppressed”, the Bcl-2 promoter activity (Bcl-2 promoter [2]; CHO cells, 1 μg Bcl-2-luciferase reporter construct, 24 hours in culture) is reported as “down-regulate” and the “expression of the Bcl-2 promoter construct” value (Bcl-2 promoter [2]; transfected into CHO cells) is reported as “down-regulated”. The Bcl-2 expression (19,000 human cDNAs; Bit1 and AES stable cell lines) was “not measurably altered”, the “Microarray result: gene induced” value (19,000 human cDNAs; at least a two-fold induction, value is the gene) was “Atrophin-1 interacting protein 1; also recorded: Mannosyl (β-1,4)-glycoprotein; also recorded: insulin-like growth factor-binding; also recorded: Tissue factor pathway inhibitor 2” and the “Microarray result: gene suppressed” value (19,000 human cDNAs; at least a two-fold suppression, value is the gene) was “Heat Shock 70 kD protein 1A; also recorded: Thymosin β-4; also recorded: Actin-binding LIM protein; also recorded: sialytransferase”.
